1 molecule from PMC9539395 (2022) can be followed below.

What all share (test): BLI
In general terms: BLI is a label-free optical method that tracks binding on a fibre tip over time.

For assay [1], the target named is T1, Wuhan RBD‐8his (SARS-CoV-2, UniProt P0DTC2).
Assay [2] has as its target T1, Wuhan RBD‐8his. This is another data set of the same source.
In assay [3] the target is T2, gamma RBD (SARS-CoV-2, UniProt P0DTC2).
The target of assay [4] is T2, gamma RBD. This is another data set of the same source.

B1: sACE2_(2).v2.4(NN)‐IgG1 (Fc fusion)
chain: QSTIEEQAKYFLDKFNHEAEDLFYQSSLASWNYNTNITEENVQNMNNAGDKWSAFLKEQSTTAQMYPLQEIQNLTVKLQLQALQQNGSSVLSEDKSKRLNTILNTMSTIYSTGKVCNPDNPQECLLLEPGLNEIMANSLDYNERLWAWESWRSEVGKQLRPLYEEYVVLKNEMARANHYEDYGDYWRGDYEVNGVDGYDYSRGQLIEDVEHTFEEIKPLYEHLHAYVRAKLMNAYPSYISPIGCLPAHLLGDMWGRFWTNLYSLTVPFGQKPNIDVTDAMVDQAWDAQRIFKEAEKFFVSVGLPNMTQGFWEYSMLTDPGNVQKAVCHPTAWDLGKGDFRILMCTKVTMDDFLTAHNEMGNIQYDMAYAAQPFLLRNGANEGFHEAVGEIMSLSAATPKHLKSIGLLSPDFQEDNETEINFLLKQALTIVGTLPFTYMLEKWRWMVFKGEIPKDQWMKKWWEMKREIVGVVEPVPHDETYCDPASLFHVSNDYSFIRYYTRTLYQFQFQEALCQAAKHEGPLHKCDISNSTEAGQKLFNMLRLGKSEPWTLALENVVGAKNMNVRPLLNYFEPLFTWLKDQNKNSFVGWSTDWSPYADQSIKVRISLKSALGDKAYEWNDNEMYLFRSSVAYAMRQYFLKVKNQMILFGEEDVRVANLKPRISFNFFVTAPKNVSDIIPRTEVEKAIRMSRSRINDAFRLNDNSLEFLGIQPTLG
A word on the Kd: it is the concentration at which binding is half-saturated. Read a low Kd as a tighter complex. For orientation: koff means the rate constant with which the complex falls apart. Low readings indicate slow dissociation, high ones fast dissociation. For B1, the Kd with Wuhan RBD‐8his [1] and in the assay with gamma RBD [4] was 0.5 nM throughout. Moreover, the koff in the assay with Wuhan RBD‐8his [2] was 0.00032 s⁻¹; with gamma RBD [3], 0.00043 s⁻¹.
